Results taken from publication PMC1351370.
Where two headings read alike, the source gives them in different places.

Assays:
[1] = molecular target: T1, HIV-1 nucleocapsid protein NC (wild type) (HIV-1 pNL4-3, UniProt P12493 378-432); test: competition
[2] = molecular target: T1, HIV-1 nucleocapsid protein NC (wild …); test: tryptophan fluorescence quenching
[3] = molecular target: T1, HIV-1 nucleocapsid protein NC (wild …); test: tryptophan fluorescence quenching; remark: listed apart in the source
[4] = molecular target: T1, HIV-1 nucleocapsid protein NC (wild …); test: competition; remark: listed apart in the source
[5] = molecular target: T1, HIV-1 nucleocapsid protein NC (wild …); test: SPR

AAAAAAAAAAAAAAAAAAAAAAAAAAAAAA (ssDNA) [(A)30] was tested. Which IC50 [1] did it give?
The IC50 was 6680 ± 785 nM.

TGTGTGTGTGTGTGTGTGTG (ssDNA) [(TG)10] was tested. Which IC50 [1] did it give?
Its IC50 is 37 ± 2.73 nM.

With TGTGTGTG (ssDNA) [(TG)4] as the binder, how does the Kd [2] read?
The Kd was 3.4 ± 0.07 nM.

And the Kd [3]?
The Kd was 4.7 ± 0.67 nM.

What about the IC50 [4] of the same binder?
Its IC50 is 264 ± 101 nM.

Does AAAAAAAA (ssDNA) [(A)8] bind [5]?
Result: no binding
